Paper PMC9352680, “A comprehensive thermodynamic model for RNA binding by the Saccharomyces cerevisiae Pumilio protein PUF4”
Where a chain is given by its changes, count along the chain named. Names and notes keep the numbering of the source.

T1: PUF4 RNA-binding domain (Pumilio homology domain) (Saccharomyces cerevisiae) (UniProt P25339)
T1 sequence: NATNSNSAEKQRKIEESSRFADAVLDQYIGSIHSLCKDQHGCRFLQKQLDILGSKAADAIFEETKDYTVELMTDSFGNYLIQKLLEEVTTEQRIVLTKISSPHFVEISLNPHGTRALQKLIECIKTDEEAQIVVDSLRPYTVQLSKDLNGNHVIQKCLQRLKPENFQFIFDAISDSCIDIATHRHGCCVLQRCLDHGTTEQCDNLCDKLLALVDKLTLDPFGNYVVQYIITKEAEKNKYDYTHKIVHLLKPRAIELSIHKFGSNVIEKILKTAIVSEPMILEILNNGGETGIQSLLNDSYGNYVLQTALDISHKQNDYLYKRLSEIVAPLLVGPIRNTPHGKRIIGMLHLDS

T2: PUF4 RNA-binding domain (Saccharomyces cerevisiae, UniProt P25339 537-888)
T2 sequence: T1 sequence

T3: PUF4 RNA-binding domain (Pumilio homology domain) (Saccharomyces cerevisiae, UniProt P25339 537-888)
T3 sequence: T1 sequence

B1: Ia_S2_P5E.1_K5.1_C5.1_H5.1_[G2A]_A5.1_F5.1_T5.1 (ssRNA)
RNA: UUUGAUUAAUAUGAUAUCGUUCUUUCUUAUAUUAUUAUUCUUUCUCGAUAUCAUAUUAAUCUUU
B2: Ia_S2_P5E.1_K5.1_C5.1_H5.1_A5.1_[T5G]_F5.1_T5.1 (ssRNA)
RNA: B1 RNA with A29G, U32G
B3: Ia_S2_P5E.1_K5.1_C5.1_H5.1_A5.1_[T5C]_F5.1_T5.1 (ssRNA)
RNA: B1 RNA with A29G, U32C
B4: Ia_S2_P5E.1_K5.1_C5.1_H5.1_[A4T]_A5.1_F5.1_T5.1 (ssRNA)
RNA: B1 RNA with A29G, A31U
B5: Ic_S2_P5E.1_K5.1_C5.1_H5.1_A5.1_[T6G]_[A7C]_F5.1_T5.1 (ssRNA)
RNA: B1 RNA with A29G, U33G, A34C
B6: Ib_S2_P5E.1_K5.1_C5.1_H5.1_A5.1_[T6G]_[A7T]_F5.1_T5.1 (ssRNA)
RNA: B1 RNA with A29G, U33G, A34U
B7: Ia_S2_P5E.1_K5.1_C5.1_H5.1_[A4G]_A5.1_F5.1_T5.1 (ssRNA)
RNA: B1 RNA with A29G, A31G
B8: Ib_S2_P5E.1_K5.1_C5.1_H5.1_A5.1_[T5C]_[A7T]_F5.1_T5.1 (ssRNA)
RNA: B1 RNA with A29G, U32C, A34U
B9: Ic_S2_P5E.1_K5.1_C5.1_H5.1_A5.1_[T5A]_[A7G]_F5.1_T5.1 (ssRNA)
RNA: B1 RNA with A29G, U32A, A34G

target: T1, PUF4 RNA-binding domain (Pumilio homology domain) (Saccharomyces cerevisiae); experiment: RNA-MaP; details: RNA-MaP: 20 mM Na-HEPES pH 7.4, 0.1% Tween-20, 5% glycerol, 0.1 mg/mL BSA, 2 mM DTT, low salt 0.75 mM MgCl2 + 30 mM KOAc (model data; high salt 2 mM MgCl2 + …)

Point of comparison: UGUAUAUUAU in S1a scaffold, Kd 0.88 nM. Against it:
- UGUAUCGCAC in S1b scaffold — higher, > 2400 nM

target: T2, PUF4 RNA-binding domain; experiment: Mg; RNA-MaP; 20 mM Na-HEPES pH 7.4, 30 mM KOAc, 0.75 mM MgCl2, 0.1% Tween-20, 5% glycerol, 0.1 mg/mL BSA, 2 mM DTT; 25 C; 0.0125-409.6 nM protein; details: tags: N-His6-TEV cleaved; C-SNAP kept, Cy3B-labelled; label: tethered on chip by stalled RNA polymerase

Point of comparison: ACAAACUGCAUAUUUACAAAC (ssRNA) [Ib_S3_P4E.1_K4.1_C4.1_H4.1_[T3C]_A4.1_F4.1_[A9T]_T4.1], Kd 839 nM. Against it:
- ACAAACUAUAUAUUCACAAAC (ssRNA) [Ib_S3_P4E.1_K4.1_C4.1_H4.1_[G2A]_A4.1_F4.1_[A9C]_T4.1] — 1.8-fold higher, 1480 nM
- ACAAACUGCAGAUAACAAAC (ssRNA) [Ib_S3_P3E.1_K3.1_C3.1_H3.1_[T3C]_A3.1_[T5G]_F3.1_T3.1] — higher, > 2300 nM
- ACAAACGGUAUCUAACAAAC (ssRNA) [Ib_S3_P3E.1_K3.1_C3.1_H3.1_[T1G]_A3.1_[A6C]_F3.1_T3.1] — higher, > 2300 nM
- ACAAACGGUACAUAACAAAC (ssRNA) [Ib_S3_P3E.1_K3.1_C3.1_H3.1_[T1G]_A3.1_[T5C]_F3.1_T3.1] — higher, > 2300 nM
- ACAAACUGUCUAUUACAAAC (ssRNA) [Ib_S3_P3E.1_K3.1_C3.1_H3.1_[A4C]_A3.1_F3.1_[A8T]_T3.1] — 7.2-fold lower, 116 nM
- ACAAACCCUAUAUAACAAAC (ssRNA) [Ib_S3_P3E.1_K3.1_C3.1_H3.1_[T1C]_[G2C]_A3.1_F3.1_T3.1] — higher, > 2300 nM
- ACAAACUGCAUAUUACAAAC (ssRNA) [Ib_S3_P3E.1_K3.1_C3.1_H3.1_[T3C]_A3.1_F3.1_[A8T]_T3.1] — 8.5-fold lower, 98.9 nM
- ACAAACUGAGUAUAACAAAC (ssRNA) [Ib_S3_P3E.1_K3.1_C3.1_H3.1_[T3A]_[A4G]_A3.1_F3.1_T3.1] — higher, > 2300 nM
- ACAAACCGUCUAUAACAAAC (ssRNA) [Ib_S3_P3E.1_K3.1_C3.1_H3.1_[T1C]_[A4C]_A3.1_F3.1_T3.1] — higher, > 2300 nM
- ACAAACUGGAUUUAACAAAC (ssRNA) [Ib_S3_P3E.1_K3.1_C3.1_H3.1_[T3G]_A3.1_[A6T]_F3.1_T3.1] — higher, > 2300 nM
- ACAAACUCUAUAUUACAAAC (ssRNA) [Ib_S3_P3E.1_K3.1_C3.1_H3.1_[G2C]_A3.1_F3.1_[A8T]_T3.1] — higher, > 2300 nM
- ACAAACUGUCUACAACAAAC (ssRNA) [Ib_S3_P3E.1_K3.1_C3.1_H3.1_[A4C]_A3.1_F3.1_[T7C]_T3.1] — higher, > 2300 nM
- ACAAACCGUAAAUAACAAAC (ssRNA) [Ib_S3_P3E.1_K3.1_C3.1_H3.1_[T1C]_A3.1_[T5A]_F3.1_T3.1] — higher, > 2300 nM
- ACAAACUGGAGAUAACAAAC (ssRNA) [Ib_S3_P3E.1_K3.1_C3.1_H3.1_[T3G]_A3.1_[T5G]_F3.1_T3.1] — higher, > 2300 nM
- ACAAACAGUAGAUAACAAAC (ssRNA) [Ib_S3_P3E.1_K3.1_C3.1_H3.1_[T1A]_A3.1_[T5G]_F3.1_T3.1] — higher, > 2300 nM
- ACAAACGGUAUAUGAACAAAC (ssRNA) [Ib_S3_P4E.1_K4.1_C4.1_H4.1_[T1G]_A4.1_F4.1_[T8G]_T4.1] — higher, > 2300 nM
- ACAAACCGUAUAUUCACAAAC (ssRNA) [Ib_S3_P4E.1_K4.1_C4.1_H4.1_[T1C]_A4.1_F4.1_[A9C]_T4.1] — higher, > 2300 nM
- ACAAACUAUAUUUAACAAAC (ssRNA) [Ib_S3_P3E.1_K3.1_C3.1_H3.1_[G2A]_A3.1_[A6T]_F3.1_T3.1] — higher, > 2300 nM
- B1 — 3.1-fold lower, 267 nM
- B2 — 130-fold lower, 6.34 nM
- B3 — 570-fold lower, 1.48 nM
- B4 — 73-fold lower, 11.5 nM
- B5 — 140-fold lower, 6.06 nM
- B6 — 130-fold lower, 6.35 nM
- B7 — 65-fold lower, 12.9 nM
- B8 — 620-fold lower, 1.36 nM
- B9 — 64-fold lower, 13.1 nM
- ACAAACUGCAUAUGACAAAC (ssRNA) [Ib_S3_P3E.1_K3.1_C3.1_H3.1_[T3C]_A3.1_F3.1_[A8G]_T3.1] — higher, > 2300 nM
- ACAAACUGCAUAAAACAAAC (ssRNA) [Ib_S3_P3E.1_K3.1_C3.1_H3.1_[T3C]_A3.1_F3.1_[T7A]_T3.1] — higher, > 2300 nM
- ACAAACUUUAUAUUACAAAC (ssRNA) [Ib_S3_P3E.1_K3.1_C3.1_H3.1_[G2T]_A3.1_F3.1_[A8T]_T3.1] — within 1.5-fold, 704 nM
- ACAAACUCUAUAUUCACAAAC (ssRNA) [Ib_S3_P4E.1_K4.1_C4.1_H4.1_[G2C]_A4.1_F4.1_[A9C]_T4.1] — higher, > 2300 nM
- ACAAACCGUAUAGAACAAAC (ssRNA) [Ib_S3_P3E.1_K3.1_C3.1_H3.1_[T1C]_A3.1_F3.1_[T7G]_T3.1] — higher, > 2300 nM
- ACAAACAGUACAUAACAAAC (ssRNA) [Ib_S3_P3E.1_K3.1_C3.1_H3.1_[T1A]_A3.1_[T5C]_F3.1_T3.1] — higher, > 2300 nM
- ACAAACAGUAUAAAACAAAC (ssRNA) [Ib_S3_P3E.1_K3.1_C3.1_H3.1_[T1A]_A3.1_F3.1_[T7A]_T3.1] — higher, > 2300 nM
- ACAAACUGUCUUUAACAAAC (ssRNA) [Ib_S3_P3E.1_K3.1_C3.1_H3.1_[A4C]_A3.1_[A6T]_F3.1_T3.1] — higher, > 2300 nM
- ACAAACUUUAGAUAACAAAC (ssRNA) [Ib_S3_P3E.1_K3.1_C3.1_H3.1_[G2T]_A3.1_[T5G]_F3.1_T3.1] — higher, > 2300 nM
- ACAAACUGCUUAUAACAAAC (ssRNA) [Ib_S3_P3E.1_K3.1_C3.1_H3.1_[T3C]_[A4T]_A3.1_F3.1_T3.1] — higher, > 2300 nM
- ACAAACAGUAUUUAACAAAC (ssRNA) [Ib_S3_P3E.1_K3.1_C3.1_H3.1_[T1A]_A3.1_[A6T]_F3.1_T3.1] — higher, > 2300 nM
- ACAAACUGUCUAAAACAAAC (ssRNA) [Ib_S3_P3E.1_K3.1_C3.1_H3.1_[A4C]_A3.1_F3.1_[T7A]_T3.1] — higher, > 2300 nM
- ACAAACAGUAUAUAAACAAAC (ssRNA) [Ib_S3_P4E.1_K4.1_C4.1_H4.1_[T1A]_A4.1_F4.1_[T8A]_T4.1] — higher, > 2300 nM
- ACAAACUGCGUAUAACAAAC (ssRNA) [Ib_S3_P3E.1_K3.1_C3.1_H3.1_[T3C]_[A4G]_A3.1_F3.1_T3.1] — higher, > 2300 nM
- ACAAACUCUACAUAACAAAC (ssRNA) [Ib_S3_P3E.1_K3.1_C3.1_H3.1_[G2C]_A3.1_[T5C]_F3.1_T3.1] — higher, > 2300 nM
- ACAAACUUUAUUUAACAAAC (ssRNA) [Ib_S3_P3E.1_K3.1_C3.1_H3.1_[G2T]_A3.1_[A6T]_F3.1_T3.1] — higher, > 2300 nM
- ACAAACUCUAUAUCAACAAAC (ssRNA) [Ib_S3_P4E.1_K4.1_C4.1_H4.1_[G2C]_A4.1_F4.1_[T8C]_T4.1] — higher, > 2300 nM
- ACAAACUGUCUAGAACAAAC (ssRNA) [Ib_S3_P3E.1_K3.1_C3.1_H3.1_[A4C]_A3.1_F3.1_[T7G]_T3.1] — higher, > 2300 nM
- ACAAACUGCAUAUUCACAAAC (ssRNA) [Ib_S3_P4E.1_K4.1_C4.1_H4.1_[T3C]_A4.1_F4.1_[A9C]_T4.1] — higher, > 2300 nM
- ACAAACCGUAUAUUACAAAC (ssRNA) [Ib_S3_P3E.1_K3.1_C3.1_H3.1_[T1C]_A3.1_F3.1_[A8T]_T3.1] — 11-fold lower, 78.5 nM
- ACAAACUCUAGAUAACAAAC (ssRNA) [Ib_S3_P3E.1_K3.1_C3.1_H3.1_[G2C]_A3.1_[T5G]_F3.1_T3.1] — higher, > 2300 nM
- ACAAACUUUAUAUUCACAAAC (ssRNA) [Ib_S3_P4E.1_K4.1_C4.1_H4.1_[G2T]_A4.1_F4.1_[A9C]_T4.1] — higher, > 2300 nM
- ACAAACCUUAUAUAACAAAC (ssRNA) [Ib_S3_P3E.1_K3.1_C3.1_H3.1_[T1C]_[G2T]_A3.1_F3.1_T3.1] — higher, > 2300 nM
- ACAAACAGUAUAUCAACAAAC (ssRNA) [Ib_S3_P4E.1_K4.1_C4.1_H4.1_[T1A]_A4.1_F4.1_[T8C]_T4.1] — higher, > 2300 nM
- ACAAACACUAUAUUAACAAAC (ssRNA) [Ib_S3_P4E.1_K4.1_C4.1_H4.1_[T1A]_[G2C]_A4.1_F4.1_T4.1] — higher, > 2300 nM
- ACAAACUGAAUCUAACAAAC (ssRNA) [Ib_S3_P3E.1_K3.1_C3.1_H3.1_[T3A]_A3.1_[A6C]_F3.1_T3.1] — higher, > 2300 nM
- ACAAACGGUAUAUAAACAAAC (ssRNA) [Ib_S3_P4E.1_K4.1_C4.1_H4.1_[T1G]_A4.1_F4.1_[T8A]_T4.1] — 2.4-fold higher, 1980 nM

target: T3, PUF4 RNA-binding domain (Pumilio …); experiment: RNA-MaP; ddG 3.166; RNA-MaP: 20 mM Na-HEPES pH 7.4, 0.1% Tween-20, 5% glycerol, 0.1 mg/mL BSA, 2 mM DTT, low salt 0.75 mM MgCl2 + 30 mM KOAc (model data; high salt 2 mM MgCl2 + 100 mM KOAc), 25 C; details: protein: recombinant; tags: C-terminal SNAP tag, Cy3B-labeled; N-terminal His tag removed with TEV; label: array RNA; single-stranded

For UCUCUUUAUAUAUAUCUCUU (ssRNA) [S1a K3.1 G2A], the Kd was -8.45 ± 0.403 kcal/mol (dG=RTlnKd).
